In patent US20220396624A1 (HC BIOPHARMA SHANGHAI, published 2022):
Numbering of substitutions follows the chain as printed.

B1: murine antibody 14A7 (A1) (antibody, V domains shown)
VH: QVQLKQSGAELVRPGTSVKMSCKATEYTFTNNWIAWVKQRPGHGLEWVGDIHPGGGFTNYNEKFKVKATLTADTSSSTAYMQLRSLTSEDSAIYYCAGSKTRDYDAWFAYWGQGTLVTVSA
VL: DIVMTQAPSSLAVSVGEKVTLNCKSSQSLLYTGNQKNYLAWYQQKPGQSPKLLIYWASTRESGVPDRFTGSGSGTDFTLTISNVKAEDLAVYFCQQYYTYRTFGGGTKLEIK
notes: Mouse hybridoma antibody (subclone 14A7-4), tested as culture supernatant or purified from it; Only the variable domains are printed; also called 14A7-4
B2: chimeric antibody 14A7(chi) (antibody, V domains shown)
VH: B1 VH
VL: DIVMTQAPSSLAVSVGEKVTLNCKSSQSLLYTGNQKNYLAWYQQKPGQSPKLLIYWASTRESGVPDRFTGSGSGTDFTLTISNVKAEDLAVYFCQQYYTYRTFGGGTKLEIKR
notes: also called 14A7-4(chi)
B3: humanized antibody 14A7(hz) (antibody, V domains shown)
VH: QVQLVQSGAEVKKPGASVKVSCKASEYTFTNNWIAWVRQAPGQGLEWVGDIHPGGGFTNYNEKFKVRATLTADTSTSTAYMELSSLRSEDTAVYYCAGSKTRDYDAWFAYWGQGTTVTVSS
VL: DIQMTQSPSTLSASVGDRVTITCKSSQSLLYTGNQKNYLAWYQQKPGKAPKLLIYWASTRESGVPSRFSGSGSGTEFTLTISSLQPDDFATYYCQQYYTYRTFGQGTKVEIKR
notes: also called 14A7-4(hz)
B4: murine antibody 8A2 (A8) (antibody, V domains shown)
VH: QVQLKQSGPGLVAPSQSLSITCTVSGFSLTGYGVNWVRQPPGKGLEWLGKIWGDGITDYNSALKSRLSISKDNSKSQVFLKMNSLQTDDTARYYCARDVMDYWGQGTSVTVSS
VL: QIVLTQSPAIMSASPGEKVTMTCSASSSISYMHWYQQKPGTSPKRWIYDTSKLASGVPARFSGSESGTSYSLTISSMEAEDAATYYCHHRSPYPTFGAGTKLELK
notes: Mouse hybridoma antibody (subclone 8A2-2); Only variable domains printed; also called 8A2-2
B5: murine antibody 10A3 (A11) (antibody, V domains shown)
VH: B4 VH with D88E
VL: QIVLTQSPAIMSASPGEKVTMTCSASSSINYMHWFQQKPGTSPKRWIYDTSKLASGVPARFSGSESGTSYSLTISSMEAEDAATYYCHHRSPYPTFGAGTKLELKR
notes: Mouse hybridoma antibody (subclone 10A3-3); Only variable domains printed; also called 10A3-3
B6: murine antibody 2E5 (A10) (antibody, V domains shown)
VH: B4 VH with D88E
VL: DVLMTQIPLSLPVSLGDQASISCRSSQSIEQSNGNTYLEWYLQKPGQSPKVLIYKVSNRFSGVPDRFSGSGSGTDFTLKISRVESEDLGVYYCFQGSHVPYTFGGGTKLEIK
notes: Mouse hybridoma antibody (subclone 2E5-9); Only variable domains printed; also called 2E5-9
B7: murine antibody 7E5 (A9) (antibody, V domains shown)
VH: B4 VH with I56S, N60T, M82V
VL: B4 VL with Y35F, H89Q
notes: Mouse hybridoma antibody (subclone 7E5-2); Only variable domains printed; also called 7E5-2
B8: murine antibody 13C9 (A3) (antibody, V domains shown)
VH: QVQLKQSGAGLVKPGASVKLSCKASGYIFTEYIIHWVKQRSGQGLEWIGWFYPGSDNIKYNEKFKDKATLTADKSSSTVYMELSRLTSEDSAVYFCARHETGYFFDYWGQGTTLTVSS
VL: DIVITQSPAIMSASPGEKVTMTCSASSSVSKMNWYQQKSGTSPKRWIYDTSKLASGVPSRFSGSGSGTSYSLTISSMEAEDAATYYCQQWSSNPLTFGSGTKLELKR
notes: Mouse hybridoma antibody (subclone 13C9-1), tested as culture supernatant or purified; Only variable domains printed (the VL as printed ends in RA); also called 13C9-1
B9: murine antibody 6G5 (A12) (antibody, V domains shown)
VH: B1 VH with V48I, F57Y, V66G, R84S, A106S
VL: B8 VL
notes: Mouse hybridoma antibody (subclone 6G5-2); Only variable domains printed; the printed VL is identical to that of 13C9; also called 6G5-2
B10: murine antibody 18B4 (A4) (antibody, V domains shown)
VH: QVQLKQSGPELEKPGASVKISCKASGYSFTGYNMNWVKQSNGKSLEWIGNIDPYYGVTHYNQKFKGKATLTVDESSSTASMQLKSLTSEDSAIYYCARGIPFYGLDYWGQGTSVTVSS
VL: B8 VL with D1Q, I4L, S24G, K31F, N33H, S59A, S91N, S92T, L95F, L105I
notes: Mouse hybridoma antibody (subclone 18B4-2); Only variable domains printed; also called 18B4-2
B11: murine antibody 28B1 (A5), subclone 28B1-2 (antibody, V domains shown)
VH: QVQLKQSGAELVKPGASVMLSCTASAFNIDDTYIHWVKQRPEQGLEWIGRIDPANGNTDYDPECQGKATITTDMSSNTAYLQLSSLTSEDTAVYFCARGLRLPGLVYWGRGTLVTVSA
VL: DIQMTQTTSSLSASLGDRVTISCRASQDISNYLNWYQQKPDGTVKLLIYYTSILYSGVPSRFSGSGSGTDYSLTINTLEEEDIATYFCQQGNTLPWTFGGGTKLEIIR
notes: Mouse hybridoma antibody; Only variable domains printed
B12: murine antibody 28B1 (A5), subclone 28B1-7 (antibody, V domains shown)
VH: B11 VH
VL: B11 VL
B13: murine antibody 22B10 (A6) (antibody, V domains shown)
VH: QVQLKQSGAELVKPGASVELSCTASGFNIEDTYLHWVNQRPEQGLEWIGRIDPANGNTYYDPKFQGKATITTDTSSNTAYLQLSRLTSEDTAVYYCARGLRLPGFPYWGQGTLVTVSA
VL: B11 VL with T8P, N34S, Y55H, T74A, N76S, T77N, E79D, E80Q, I107K
notes: Mouse hybridoma antibody (subclone 22B10-1); Only variable domains printed; also called 22B10-1
B14: murine antibody 15G10 (A2) (antibody, V domains shown)
VH: QVQLKQSGPELVKPGASVKTSCKASGYTFTNYVVHWVKQNPGQGLEWIGYVNPNNDGTIFNEKFKDKAILTSDKSSSTAYMELSSLTSEDSAVYYCARSPFAHWGQGTLVTVSA
VL: QIVLTQSPASLTVSLGQRATISCSASESVDFYGTSLMQWFQQKPGQPPKLLVYTASNVDSEVPARFSGSGSGTDFSLNIHPVEEDDIAMYFCHQTRKVPYTFGGGTKLEIK
notes: Mouse hybridoma antibody (subclone 15G10-3), tested as culture supernatant; Only variable domains printed; also called 15G10-3
B15: chimeric antibody 13C9-1(chi) (antibody, V domains shown)
VH: B8 VH
VL: B8 VL
notes: Chimeric antibody of murine 13C9

target: T1, extracellular region of human PD-L1 protein (positions 19-238 of SEQ ID NO: 3) (human, UniProt Q9NZQ7 19-238); assay: ForteBio Octet (BLI), antibody 20 nM, PD-L1 ECD from 30 nM in 3-fold dilutions
T1 construct: also called Human PD-L1-his; antigen PD-L1
T1 sequence (Q9NZQ7 19-238): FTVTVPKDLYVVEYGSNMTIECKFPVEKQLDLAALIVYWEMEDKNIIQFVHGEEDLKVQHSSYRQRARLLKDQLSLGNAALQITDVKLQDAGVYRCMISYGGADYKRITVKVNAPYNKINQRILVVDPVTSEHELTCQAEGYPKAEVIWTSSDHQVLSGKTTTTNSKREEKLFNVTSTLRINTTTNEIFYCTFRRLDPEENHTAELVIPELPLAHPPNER
Protocol: The murine antibody, chimeric antibody and humanized antibody of the present invention were dissolved in PBS to obtain 20 nM solutions.
The affinities of the antibody-antigen were determined using the ForteBio Octet as an affinity detection instrument.

First: B1
Second: B2
The Kd of the first is 8.4-fold lower: 0.545 nM for the first, 4.56 nM for the second.

B3 showed a Kd of 0.884 nM.

Compared with B1, B2 is 4.8-fold higher in koff: 0.000359 s⁻¹ for the first, 0.00173 s⁻¹ for the second.

B3 showed a koff of 0.000358 s⁻¹.

target: T1, extracellular region of human PD-L1 …; assay: ForteBio Octet (BLI), antibody immobilized, PD-L1 ECD 6.25-200 nM; antibody after purification
Protocol: (§1) A 96-well plate was obtained, and 200 μl SD buffer (1×PBS+0.02% Tween20+0.1% BSA) was added to each well, the plate was placed in ForteBio Octet and pre-circulated.
The antibody was immobilized and the concentration of the antibody after supernatant purification was 10 μg/ml.

Going from B4 to B5, the Kd falls from 4200 nM to 906 nM (4.6-fold). The second binds more tightly here.

Compared with B6, B7 is 260-fold higher in Kd: 15 nM for the first, 3930 nM for the second. The first binds more tightly here.

First: B8
Second: B9
The Kd of the first is 2.6-fold higher: 2.78 nM for the first, 1.07 nM for the second. The second binds more tightly here.

Going from B10 to B1, the Kd falls from 936 nM to 0.882 nM (1100-fold).

B11 and B12 are within 1.5-fold of each other in Kd: 0.785 nM for the first, 0.748 nM for the second.

In the case of B13, the Kd is reported as 0.528 nM.

First: B4
Second: B5
The koff of the first is 4.6-fold higher: 0.137 s⁻¹ for the first, 0.0296 s⁻¹ for the second.

First: B6
Second: B7
The koff of the first is 29-fold lower: 0.00376 s⁻¹ for the first, 0.11 s⁻¹ for the second.

B8 and B9 are within 1.5-fold of each other in koff: 0.00117 s⁻¹ for the first, 0.000838 s⁻¹ for the second.

Compared with B10, B1 is 300-fold lower in koff: 0.191 s⁻¹ for the first, 0.000647 s⁻¹ for the second.

B11 and B12 are within 1.5-fold of each other in koff: 0.000785 s⁻¹ for the first, 0.000723 s⁻¹ for the second.

With B13 the koff was 0.000481 s⁻¹.

target: T2, human PD-L1 on 293T-h-PDL1 cells (human, UniProt Q9NZQ7 19-238); assay: FACS, hybridoma culture supernatant on 293T-h-PDL1 cells
T2 sequence (Q9NZQ7 19-238): as above
Protocol: 1 ml of flow cytometry buffer was added to each flow cytometry tube and centrifuged at 1200 rpm for 5 minutes. The supernatant was discarded and the washing was repeated three times. At the same time, both control tube 1 (no culture supernatant and secondary antibody below, only the cell suspension was added) and control tube 2 (no culture supernatant, only cell suspension and secondary antibody below were added) were set.
(§2) Then 100 μl of flow cytometry buffer was added to each flow cytometry tube and resuspension was performed. […] Then 1 ml of flow cytometry buffer was added and centrifuged at 1200 rpm for 5 minutes at room temperature, the supernatant was discarded and the washing was repeated three times. 250 μl of flow cytometry buffer was added to each flow cytometry tube again, the pellet was resuspended and mixed. The resulting samples was detected by the machine.

B4 and B8 are within 1.5-fold of each other in EC50: 0.336 µg/mL for the first, 0.44 µg/mL for the second.

Compared with B10, B1 is 4.3-fold higher in EC50: 0.125 µg/mL for the first, 0.538 µg/mL for the second.

Compared with B14, B11 is 3.7-fold lower in EC50: 1.45 µg/mL for the first, 0.39 µg/mL for the second.

B13 was tested, and the EC50 was 0.517 µg/mL.

target: T1, extracellular region of human PD-L1 …; assay: ForteBio Octet (BLI), antibody immobilized, PD-L1 ECD 6.25-200 nM; culture supernatant
Protocol: as §1

First: B4
Second: B5
The Kd of the first is 6-fold higher: 2.04 nM for the first, 0.34 nM for the second.

Compared with B6, B7 is 2.8-fold higher in Kd: 0.175 nM for the first, 0.498 nM for the second.

First: B8
Second: B9
The Kd of the first is 61-fold lower: 0.00181 nM for the first, 0.111 nM for the second. The first binds more tightly here.

First: B10
Second: B1
The Kd of the first is 11-fold higher: 0.586 nM for the first, 0.0557 nM for the second. The second binds more tightly here.

First: B11
Second: B12
The Kd of the first is higher: 0.00924 nM for the first, < 0.001 nM for the second.

B13 was tested, and the Kd was 0.0714 nM.

Going from B4 to B5, the koff falls from 0.00034 s⁻¹ to 5.15e-05 s⁻¹ (6.6-fold).

Compared with B6, B7 is 3.1-fold higher in koff: 5.61e-05 s⁻¹ for the first, 0.000172 s⁻¹ for the second.

Compared with B8, B9 is 130-fold higher in koff: 6.32e-07 s⁻¹ for the first, 7.94e-05 s⁻¹ for the second.

Compared with B10, B1 is 24-fold lower in koff: 0.000662 s⁻¹ for the first, 2.78e-05 s⁻¹ for the second.

Going from B11 to B12, the koff falls from 6.26e-06 s⁻¹ to < 1e-07 s⁻¹.

Binder B13 has a koff of 4.43e-05 s⁻¹.

target: T2, human PD-L1 on 293T-h-PDL1 cells; assay: FACS, purified antibody on 293T-h-PDL1 cells
Protocol: as §2
Control tube 1 (no antibody and secondary antibody, only cell suspension was added) and control tube 2 (no antibody, only cell suspension and secondary antibody was added) were set.

Compared with B8, B15 is 2.9-fold higher in EC50: 0.49 µg/mL for the first, 1.42 µg/mL for the second.

Compared with B1, B2 is 1.6-fold higher in EC50: 0.8 µg/mL for the first, 1.32 µg/mL for the second.

B3 gave an EC50 of 0.77 µg/mL.

target: T3, fusion protein of the extracellular region of human PD-L1 and human IgG1-FC (human, UniProt Q9NZQ7 19-238); assay: FACS blocking of PD-L1-hFc binding to 293T-h-PD1 cells, purified antibody
T3 construct: PD-L1 is put first by convention; also called fusion protein PD-L1 (hFC tag)
T3 sequence (Q9NZQ7 19-238): as above
Protocol: (§3) Each well was then washed twice by adding 400 μl FACS buffer, PE anti-human IgG Fc secondary antibody was added and incubated for 1 hour, after which each well was washed twice by adding 400 μl FACS buffer. Detection was performed.

B8 and B15 are within 1.5-fold of each other in IC50: 2.38 µg/mL for the first, 2.47 µg/mL for the second.

Compared with B1, B2 is 2.5-fold higher in IC50: 2.27 µg/mL for the first, 5.66 µg/mL for the second.

Work on B3 yielded an IC50 of 1.95 µg/mL.

target: T3, fusion protein of the extracellular …; assay: FACS blocking of PD-L1-hFc binding to 293T-h-PD1 cells, hybridoma supernatant
Protocol: as §3

Going from B4 to B8, the IC50 falls from 5.17 µg/mL to 1.95 µg/mL (2.7-fold).

First: B1
Second: B14
The IC50 of the first is 1.7-fold lower: 2.31 µg/mL for the first, 4 µg/mL for the second.

First: B11
Second: B13
The IC50 of the first is 1.9-fold lower: 2.31 µg/mL for the first, 4.31 µg/mL for the second.
